The values below come from patent publication EP4800035A1 (National Cancer Center, dated 2025).

To fix the notation:
T1: human interleukin-7 receptor (IL-7R) (human, UniProt P16871 21-459)
T1 construct: whole, on cells; Endogenous receptor on NALM6 and REH cells in flow cytometry; also called IL-7Ralpha; IL-7 Ralpha
T1 sequence (looked up): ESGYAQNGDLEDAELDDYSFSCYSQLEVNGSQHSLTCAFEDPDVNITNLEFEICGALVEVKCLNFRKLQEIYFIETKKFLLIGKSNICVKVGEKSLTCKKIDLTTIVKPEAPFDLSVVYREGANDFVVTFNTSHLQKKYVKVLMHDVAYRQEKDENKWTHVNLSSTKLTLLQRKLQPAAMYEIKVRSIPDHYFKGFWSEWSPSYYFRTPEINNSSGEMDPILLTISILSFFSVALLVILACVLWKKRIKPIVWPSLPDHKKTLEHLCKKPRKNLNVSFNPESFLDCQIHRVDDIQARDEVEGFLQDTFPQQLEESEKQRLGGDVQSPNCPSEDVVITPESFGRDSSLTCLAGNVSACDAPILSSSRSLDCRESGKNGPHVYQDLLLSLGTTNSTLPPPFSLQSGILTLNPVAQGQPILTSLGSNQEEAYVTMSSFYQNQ

B1: clone 2D5 chimeric antibody in the IgG1 format (antibody)
heavy: not shown
light: DIVMTQSHKFMSTSVGDRVSITCKASQDVGIVVAWYQQKPGQSPKLLIYWASTRHTGVPDRFTGSGSGTDFTLTISNVQSEDLADYFCQQYSSYPLTFGAGTKLELRRTVAAPSVFIFPPSDEQLKSGTASVVCLLNNFYPREAKVQWKVDNALQSGNSQESVTEQDSKDSTYSLSSTLTLSKADYEKHKVYACEVTHQGLSSPVTKSFNRGEC
notes: also called anti-human IL-7R antibody clone 2D5 (IgG1 format)
B2: clone 2D5 chimeric antibody in the IgG4 format (antibody)
heavy: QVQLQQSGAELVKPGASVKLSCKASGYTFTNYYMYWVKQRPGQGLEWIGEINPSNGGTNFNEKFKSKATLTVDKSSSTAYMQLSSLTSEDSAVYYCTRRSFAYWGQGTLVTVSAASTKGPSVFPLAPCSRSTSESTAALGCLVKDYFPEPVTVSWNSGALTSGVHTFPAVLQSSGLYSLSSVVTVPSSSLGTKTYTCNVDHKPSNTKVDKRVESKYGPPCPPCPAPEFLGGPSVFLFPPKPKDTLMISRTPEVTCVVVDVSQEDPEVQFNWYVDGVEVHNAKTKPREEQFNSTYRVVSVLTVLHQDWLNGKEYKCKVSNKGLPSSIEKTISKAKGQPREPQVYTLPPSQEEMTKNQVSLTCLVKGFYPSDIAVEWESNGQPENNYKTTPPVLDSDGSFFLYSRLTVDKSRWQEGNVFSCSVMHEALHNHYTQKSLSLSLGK
light: DIVMTQSHKFMSTSVGDRVSITCKASQDVGIVVAWYQQKPGQSPKLLIYWASTRHTGVPDRFTGSGSGTDFTLTISNVQSEDLADYFCQQYSSYPLTFGAGTKLELRRTVAAPSVFIFPPSDEQLKSGTASVVCLLNNFYPREAKVQWKVDNALQSGNSQESVTEQDSKDSTYSLSSTLTLSKADYEKHKVYACEVTHQGLSSPVTKSFNRGEC
notes: also called anti-human IL-7R antibody clone 2D5 (IgG4 format)
B3: clone 577 chimeric antibody in the IgG4 format (antibody)
heavy: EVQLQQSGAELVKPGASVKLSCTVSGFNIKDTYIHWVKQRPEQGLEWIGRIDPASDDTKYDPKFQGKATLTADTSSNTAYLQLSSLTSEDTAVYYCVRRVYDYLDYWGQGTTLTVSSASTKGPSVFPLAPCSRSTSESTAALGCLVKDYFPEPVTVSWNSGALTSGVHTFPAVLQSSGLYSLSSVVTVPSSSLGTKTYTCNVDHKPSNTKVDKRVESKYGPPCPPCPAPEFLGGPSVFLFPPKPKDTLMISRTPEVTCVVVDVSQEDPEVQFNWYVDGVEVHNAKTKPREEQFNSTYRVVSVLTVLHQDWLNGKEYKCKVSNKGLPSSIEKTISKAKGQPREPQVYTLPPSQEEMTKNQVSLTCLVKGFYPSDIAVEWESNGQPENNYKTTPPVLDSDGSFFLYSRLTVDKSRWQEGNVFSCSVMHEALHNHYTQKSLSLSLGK
light: ETTVTQSPASLSMAMGEKVTIRCMTSTDINDDMNWYQQKPGEPPKLLISEGNTLRPGVPSRFSSSGYSTDFFFTIEYMLSEDVADYFCLQTDNLPLTFGAGTKLELRRTVAAPSVFIFPPSDEQLKSGTASVVCLLNNFYPREAKVQWKVDNALQSGNSQESVTEQDSKDSTYSLSSTLTLSKADYEKHKVYACEVTHQGLSSPVTKSFNRGEC
B4: clone 24 chimeric antibody in the IgG1 format (antibody)
heavy: not shown
light: QIVLTQSPAIMSSFPGEKVTMTCSASSSVNYIHWYQQKSGTSPKRLIYDTSKLASGVPPRFSGSGSGTSYSLTISSMEAEDAATYYCQQWSRNPLTFGAGTKLELRRTVAAPSVFIFPPSDEQLKSGTASVVCLLNNFYPREAKVQWKVDNALQSGNSQESVTEQDSKDSTYSLSSTLTLSKADYEKHKVYACEVTHQGLSSPVTKSFNRGEC
notes: also called anti-human IL-7R antibody clone 24 (IgG1 format)
B5: clone 24 chimeric antibody in the IgG4 format (antibody)
heavy: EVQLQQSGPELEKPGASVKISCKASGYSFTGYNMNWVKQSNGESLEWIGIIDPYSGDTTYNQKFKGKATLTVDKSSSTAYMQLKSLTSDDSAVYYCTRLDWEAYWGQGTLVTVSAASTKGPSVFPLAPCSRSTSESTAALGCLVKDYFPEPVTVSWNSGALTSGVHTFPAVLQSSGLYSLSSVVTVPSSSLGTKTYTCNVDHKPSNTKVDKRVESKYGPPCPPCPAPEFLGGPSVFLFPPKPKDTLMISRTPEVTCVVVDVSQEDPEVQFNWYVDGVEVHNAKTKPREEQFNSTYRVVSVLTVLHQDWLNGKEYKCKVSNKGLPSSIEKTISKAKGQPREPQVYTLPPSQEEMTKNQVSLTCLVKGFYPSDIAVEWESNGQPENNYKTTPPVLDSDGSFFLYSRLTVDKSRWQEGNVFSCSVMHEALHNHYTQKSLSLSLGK
light: QIVLTQSPAIMSSFPGEKVTMTCSASSSVNYIHWYQQKSGTSPKRLIYDTSKLASGVPPRFSGSGSGTSYSLTISSMEAEDAATYYCQQWSRNPLTFGAGTKLELRRTVAAPSVFIFPPSDEQLKSGTASVVCLLNNFYPREAKVQWKVDNALQSGNSQESVTEQDSKDSTYSLSSTLTLSKADYEKHKVYACEVTHQGLSSPVTKSFNRGEC
notes: also called anti-human IL-7R antibody clone 24 (IgG4 format)
B6: clone 577 chimeric antibody in the IgG1 format (antibody)
heavy: not shown
light: ETTVTQSPASLSMAMGEKVTIRCMTSTDINDDMNWYQQKPGEPPKLLISEGNTLRPGVPSRFSSSGYSTDFFFTIEYMLSEDVADYFCLQTDNLPLTFGAGTKLELRRTVAAPSVFIFPPSDEQLKSGTASVVCLLNNFYPREAKVQWKVDNALQSGNSQESVTEQDSKDSTYSLSSTLTLSKADYEKHKVYACEVTHQGLSSPVTKSFNRGEC

One test concerns the target T1, human interleukin-7 receptor (IL-7R). Briefly: flow cytometry on NALM6 and REH cells (FIG. 2). Background: A flow cytometer gives signals particle by particle.
B1: the binding result is reported as “binds”. In the case of B2, the binding result is “binds”.

Turning to B3, the binding result is reported as “binds”. Take B4: the binding result is “binds”. On to B5, for which the binding result was “binds”.

A further test has the same target. Briefly: flow cytometry on NALM6 and REH cells (FIG. 5, human chimeric clone).
Turning to B6, the binding result is “binds”.
